Columns and labels:
[1] = test system: VEGF; test: biomarker levels in IOMM-Lee by multiplex analysis; format: cell-based, Human; conditions: 1 μg/mL-80 μg/mL, 48 h
Excerpt: (§1) Effect of SEQ ID No 2 on the expression of following 7 biomarkers were estimated in Human Meningioma cell line (IOMM-Lee) using multiplex analysis: TNF-alpha, VEGF, VEGFR2, HGF, HGFR/c-MET, PDGF-BB, and Contactin-1. Levels of another marker, Notch-1 were also estimated by ELISA in the same cell line. These 8 biomarkers play very crucial role in the pathogenesis and progression of Brain Tumor. […] Supernatants were collected and the levels of these 8 markers were investigated.

[2] = test system: PDGF-BB; test: biomarker levels in IOMM-Lee by multiplex analysis; format: cell-based, Human; conditions: 1 μg/mL-80 μg/mL, 48 h
Excerpt: as §1

[3] = test system: HGF; test: biomarker levels in IOMM-Lee by multiplex analysis; format: cell-based, Human; conditions: 1 μg/mL-80 μg/mL, 48 h
Excerpt: as §1

[4] = test system: TNF-α; test: biomarker levels in IOMM-Lee by multiplex analysis; format: cell-based, Human; conditions: 1 μg/mL-80 μg/mL, 48 h
Excerpt: as §1

[5] = test system: Contactin-1; test: biomarker levels in IOMM-Lee by multiplex analysis; format: cell-based, Human; conditions: 1 μg/mL-80 μg/mL, 48 h
Excerpt: as §1

[6] = test system: HGFR/c-MET; test: biomarker levels in IOMM-Lee by multiplex analysis; format: cell-based, Human; conditions: 1 μg/mL-80 μg/mL, 48 h
Excerpt: as §1

[7] = test system: VEGFR2; test: biomarker levels in IOMM-Lee by multiplex analysis; format: cell-based, Human; conditions: 1 μg/mL-80 μg/mL, 48 h
Excerpt: as §1

[8] = test system: Glioblastoma (LN-18); test: cytotoxicity in Brain Tumor Cell lines by MTT assay; format: cell-based, Human; conditions: 72 h
Experimental: (§2) The SEQ ID NO. […] Untreated cells were used as control. […] Cells were incubated for 3 h at 37° C.

[9] = test system: Neuroblastoma (SH-SY5Y); test: as above; format: cell-based, Human; conditions: 72 h
Experimental: as §2

[10] = test system: MIAPaCa-2
[11] = test system: IOMM-Lee cell line; test: Mitochondrial membrane depolarization by JC-1 staining; format: cell-based, Human; conditions: 1 μg/mL-80 μg/mL
Experimental: (§3) The evaluation of pro-apoptotic effect of SEQ ID NO. 2 in brain tumor cell lines U251MG & IOMM Lee was conducted. The cells were treated with SEQ ID NO. 2 at various concentrations around IC50 values. Resultant effect on apoptosis was determined via externalization of Phosphatidyl Serine (PS) on cell membrane by Annexin-V staining, mitochondrial membrane depolarization by JC-1 staining and cell cycle distribution analysis by Propidium Iodide (PI) staining. Increase in apoptotic markers in U251MG & IOMM-Lee cell lines reflected the pro-apoptotic potential of SEQ ID NO. 2 in brain tumor. • Externalization of PS on cell membrane by Annexin-V staining on U251MG cell line: SEQ ID NO.

[12] = test system: U251MG cell line; test: as above; format: cell-based, Human; conditions: 1 μg/mL-80 μg/mL
Experimental: as §3

[13] = test system: MDA-MB-231; test: JC-1 assay, mitochondrial membrane depolarization; format: cell-based, Human; conditions: 16h
Experimental: (§4) To evaluate the in vitro apoptotic effect of recombinant lectin having the amino acid sequence of SEQ ID NO.2 in MDA-MB-231 (breast cancer) and PANG-1 (pancreatic cancer) cell line by JC-1 assay, an increase in mitochondrial membrane depolarization was used as a marker of apoptosis. […] 2 using JC-1 dye based method. […] The cell lines were grown in Dulbecco's Modified Eagle Medium (DMEM)+10% heat inactivated FBS at 37° C. (95% humidity and 5% CO2). […] Recombinant lectin having the amino acid sequence of SEQ ID NO. 2 was diluted in serum free medium. Doxorubicin was used as positive control and stock solution was prepared in dimethyl sulfoxide (DMSO). […] The cells were then incubated overnight under growth conditions to allow the cell recovery and exponential growth. Cells were treated with the recombinant lectin of SEQ ID NO. […] Following respective treatments the cells in the above plate were incubated for 16h in CO2 incubator at 37° C., 5% CO2 and 95% humidity.
(§5) After 16h of incubation, the supernatants were discarded and 100 μL of JC1-dye solution (prepared by diluting 1 mM DMSO stock in to 10 μM in 1×PBS) was added to each well. The cells were then incubated with the dye in CO2 incubator at 37° C. for 15 min. After 15 min of incubation, the supernatant was removed and the cells were washed twice with 1×PBS and then 100 μL of 1×PBS was added to each well. Red fluorescence (excitation 550 nm, emission 600 nm) and green fluorescence (excitation 485 nm, emission 535 nm) were measured using Biotek Synergy FIT plate reader. The mitochondrial membrane potential […] was calculated as the ratio of intensity of red fluorescence to intensity of green fluorescence described as follows:
(§6) ΔΨM=Intensity of red fluorescence/Intensity of green fluorescence
(§7) The percentage decrease of Red fluorescence/Green fluorescence corresponding to each treatment was calculated using the following formula:
(§8) Where X=Δψm corresponding to treated cells R=ΔΨM corresponding to control wells.

[14] = test system: PANC-1; test: JC-1 assay, mitochondrial membrane depolarization; format: cell-based, Human; conditions: 16h
Experimental: as §4, §5, §6, §7, §8

B1: SEQ ID NO. 2: recombinant lectin; variant of the S. rolfsii lectin amino acid sequence (reported as Rec-2 in WO 2010/095143) (protein)
chain: TYKITVRVYQTNPDAFFHPVEKTVWKYANGGTWTITDDQHVLTMGGSGTSGTLRFHADNGESFTATFGVHNYKRWCDIVTNLAADETGMVINQQYYSQKNREEARERQLSNYQVKNAKGRNFQIVYTEAEGNDLHANLIIG
modifications: In vitro synthesis
[1]
  Percentage inhibition on levels of VEGF: 3.9%-49.3%
[2]
  Percentage inhibition on levels of PDGF-BB: 33.6%-100%
[3]
  Percentage inhibition on levels of HGF: 43.8%-93%^
[4]
  Percentage inhibition on levels of TNF-α: 16.8%-42.3%
[5]
  Percentage inhibition on levels of Contactin-1: 0.3%-27.2%
[6]
  Percentage inhibition on levels of HGFR/c-MET: 5.5%-19.3%
[7]
  Percentage inhibition on levels of VEGFR2: 17.8%-22.5%
[8]; 2.5 μg/mL-100 μg/mL
  % of cytotoxicity: 39.6%-75.3%
[8]
  IC50 Value: 4.35 µg/mL
[9]; 2.5 μg/mL-100 μg/mL
  % of cytotoxicity: 10.3%-46.9%
[9]
  IC50 Value: >100 µg/mL
[10]
  % Cytotoxicity: 47.5%
[11]
  increase in mitochondrial membrane depolarization as compared to Control (Untreated): 16.1%-36.4%
[12]
  increase in mitochondrial membrane depolarization as compared to Control (Untreated): 36.8%-60.9%
[13]; 2.5 μg/mL
  Average Green fluorescence: 703.0
  Average Red fluorescence: 769.7
  Percentage decrease in MMP (%): 54.1%
  Red/Green ratio: 1.09
[13]; 2.5 μg/mL-80 μg/mL
  depolarization of mitochondrial membrane: 19.8%-54.1%
[13]; 5 μg/mL
  Average Green fluorescence: 560.0
  Average Red fluorescence: 709.3
  Percentage decrease in MMP (%): 46.9%
  Red/Green ratio: 1.27
[13]; 10 μg/mL
  Average Green fluorescence: 596.3
  Average Red fluorescence: 1098.3
  Percentage decrease in MMP (%): 22.8%
  Red/Green ratio: 1.84
[13]; 20 μg/mL
  Average Green fluorescence: 497.3
  Average Red fluorescence: 929.3
  Percentage decrease in MMP (%): 21.7%
  Red/Green ratio: 1.87
[13]; 40 μg/mL
  Average Green fluorescence: 535.7
  Average Red fluorescence: 1009.0
  Percentage decrease in MMP (%): 21.0%
  Red/Green ratio: 1.88
[13]; 80 μg/mL
  Average Green fluorescence: 500.3
  Average Red fluorescence: 957.3
  Percentage decrease in MMP (%): 19.8%
  Red/Green ratio: 1.91
[14]; 2.5 μg/mL
  Average Green fluorescence: 315.0
  Average Red fluorescence: 595.7
  Percentage decrease in MMP (%): 9.5%
  Red/Green ratio: 1.89
[14]; 2.5 μg/mL-80 μg/mL
  depolarization of mitochondrial membrane: 9.5%-51.7%
[14]; 5 μg/mL
  Average Green fluorescence: 293.3
  Average Red fluorescence: 452.3
  Percentage decrease in MMP (%): 26.2%
  Red/Green ratio: 1.54
[14]; 10 μg/mL
  Average Green fluorescence: 271.7
  Average Red fluorescence: 301.7
  Percentage decrease in MMP (%): 46.9%
  Red/Green ratio: 1.11
[14]; 20 μg/mL
  Average Green fluorescence: 234.3
  Average Red fluorescence: 265.7
  Percentage decrease in MMP (%): 45.8%
  Red/Green ratio: 1.13
[14]; 40 μg/mL
  Average Green fluorescence: 263.3
  Average Red fluorescence: 266.0
  Percentage decrease in MMP (%): 51.7%
  Red/Green ratio: 1.01
[14]; 80 μg/mL
  Average Green fluorescence: 257.0
  Average Red fluorescence: 272.0
  Percentage decrease in MMP (%): 49.4%
  Red/Green ratio: 1.06
